Laboratory results as given in US20220048967A1 (published 2022).
Residue numbers refer to the chain shown, from its start. Numbered stars: 1 amine (or outer) side, 2 acyl side, 3 side chain; on linkers, the order of the positions; unused ones are H or OH. Square brackets hold non-standard residues; d marks the D form. Side chains are listed from the residue outwards. Ends that are not written are not given here. * marks the point of attachment. C20 diacid = O=C(O)CCCCCCCCCCCCCCCCCCC(=O)*; γGlu = O=C(O)[C@H](CCC(=O)[*:2])N[*:1]; AEEA = NCCOCCOCC(=O)O; Aib = CC(C)(N)C(=O)O

T1: human GIP receptor (human, UniProt P48546 22-466)
T1 sequence (looked up): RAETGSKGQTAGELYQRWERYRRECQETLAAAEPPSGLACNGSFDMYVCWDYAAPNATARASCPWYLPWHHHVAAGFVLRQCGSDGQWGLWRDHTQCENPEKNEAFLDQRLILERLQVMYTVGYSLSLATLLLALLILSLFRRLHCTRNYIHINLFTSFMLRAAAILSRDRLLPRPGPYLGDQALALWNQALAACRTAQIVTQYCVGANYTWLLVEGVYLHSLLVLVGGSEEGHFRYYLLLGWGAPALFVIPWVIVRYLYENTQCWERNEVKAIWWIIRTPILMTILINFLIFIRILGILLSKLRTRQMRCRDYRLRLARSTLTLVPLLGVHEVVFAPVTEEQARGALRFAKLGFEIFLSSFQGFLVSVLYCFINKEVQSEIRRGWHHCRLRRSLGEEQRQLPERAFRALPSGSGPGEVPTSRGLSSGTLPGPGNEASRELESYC

B1: Example 72 (peptide)
peptide: Y[Aib]EGTFTSDYSILLDKIAQ[Aib]K([AEEA-AEEA-γGlu-C20 diacid])FIEYLIEGG-NH2
modifications: N-terminus assumed
SMILES: CC[C@H](C)[C@H](NC(=O)[C@H](CCCCN)NC(=O)[C@H](CC(=O)O)NC(=O)[C@H](CC(C)C)NC(=O)[C@H](CC(C)C)NC(=O)[C@@H](NC(=O)[C@H](CO)NC(=O)[C@H](Cc1ccc(O)cc1)NC(=O)[C@H](CC(=O)O)NC(=O)[C@H](CO)NC(=O)[C@@H](NC(=O)[C@H](Cc1ccccc1)NC(=O)[C@@H](NC(=O)CNC(=O)[C@H](CCC(=O)O)NC(=O)C(C)(C)NC(=O)[C@@H](N)Cc1ccc(O)cc1)[C@@H](C)O)[C@@H](C)O)[C@@H](C)CC)C(=O)N[C@@H](C)C(=O)N[C@@H](CCC(N)=O)C(=O)NC(C)(C)C(=O)N[C@@H](CCCCNC(=O)COCCOCCNC(=O)COCCOCCNC(=O)CC[C@H](NC(=O)CCCCCCCCCCCCCCCCCCC(=O)O)C(=O)O)C(=O)N[C@@H](Cc1ccccc1)C(=O)N[C@H](C(=O)N[C@@H](CCC(=O)O)C(=O)N[C@@H](Cc1ccc(O)cc1)C(=O)N[C@@H](CC(C)C)C(=O)N[C@H](C(=O)N[C@@H](CCC(=O)O)C(=O)NCC(=O)NCC(N)=O)[C@@H](C)CC)[C@@H](C)CC
B2: Example 58 (peptide)
peptide: Y[Aib]EGTFTSDYSSLLDKK([AEEA-AEEA-γGlu-C20 diacid])AQ[Aib]AFIEYLIEGGPSSGAPPPS-NH2
modifications: N-terminus assumed
SMILES: CC[C@H](C)[C@H](NC(=O)[C@H](CC(C)C)NC(=O)[C@H](Cc1ccc(O)cc1)NC(=O)[C@H](CCC(=O)O)NC(=O)[C@@H](NC(=O)[C@H](Cc1ccccc1)NC(=O)[C@H](C)NC(=O)C(C)(C)NC(=O)[C@H](CCC(N)=O)NC(=O)[C@H](C)NC(=O)[C@H](CCCCNC(=O)COCCOCCNC(=O)COCCOCCNC(=O)CC[C@H](NC(=O)CCCCCCCCCCCCCCCCCCC(=O)O)C(=O)O)NC(=O)[C@H](CCCCN)NC(=O)[C@H](CC(=O)O)NC(=O)[C@H](CC(C)C)NC(=O)[C@H](CC(C)C)NC(=O)[C@H](CO)NC(=O)[C@H](CO)NC(=O)[C@H](Cc1ccc(O)cc1)NC(=O)[C@H](CC(=O)O)NC(=O)[C@H](CO)NC(=O)[C@@H](NC(=O)[C@H](Cc1ccccc1)NC(=O)[C@@H](NC(=O)CNC(=O)[C@H](CCC(=O)O)NC(=O)C(C)(C)NC(=O)[C@@H](N)Cc1ccc(O)cc1)[C@@H](C)O)[C@@H](C)O)[C@@H](C)CC)C(=O)N[C@@H](CCC(=O)O)C(=O)NCC(=O)NCC(=O)N1CCC[C@H]1C(=O)N[C@@H](CO)C(=O)N[C@@H](CO)C(=O)NCC(=O)N[C@@H](C)C(=O)N1CCC[C@H]1C(=O)N1CCC[C@H]1C(=O)N1CCC[C@H]1C(=O)N[C@@H](CO)C(N)=O
B3: Example 51 (peptide)
peptide: Y[Aib]EGTFTSDYSILLDKK([AEEA-AEEA-γGlu-C20 diacid])AQ[Aib]AFIEYLIEGG-NH2
modifications: N-terminus assumed
SMILES: CC[C@H](C)[C@H](NC(=O)[C@H](CC(C)C)NC(=O)[C@H](Cc1ccc(O)cc1)NC(=O)[C@H](CCC(=O)O)NC(=O)[C@@H](NC(=O)[C@H](Cc1ccccc1)NC(=O)[C@H](C)NC(=O)C(C)(C)NC(=O)[C@H](CCC(N)=O)NC(=O)[C@H](C)NC(=O)[C@H](CCCCNC(=O)COCCOCCNC(=O)COCCOCCNC(=O)CC[C@H](NC(=O)CCCCCCCCCCCCCCCCCCC(=O)O)C(=O)O)NC(=O)[C@H](CCCCN)NC(=O)[C@H](CC(=O)O)NC(=O)[C@H](CC(C)C)NC(=O)[C@H](CC(C)C)NC(=O)[C@@H](NC(=O)[C@H](CO)NC(=O)[C@H](Cc1ccc(O)cc1)NC(=O)[C@H](CC(=O)O)NC(=O)[C@H](CO)NC(=O)[C@@H](NC(=O)[C@H](Cc1ccccc1)NC(=O)[C@@H](NC(=O)CNC(=O)[C@H](CCC(=O)O)NC(=O)C(C)(C)NC(=O)[C@@H](N)Cc1ccc(O)cc1)[C@@H](C)O)[C@@H](C)O)[C@@H](C)CC)[C@@H](C)CC)C(=O)N[C@@H](CCC(=O)O)C(=O)NCC(=O)NCC(N)=O
B4: Example 70 (peptide)
peptide: Y[Aib]EGTFTSDK([AEEA-AEEA-γGlu-C20 diacid])SILLDKIAQ[Aib]AFIEYLIEGG-NH2
modifications: N-terminus assumed
SMILES: CC[C@H](C)[C@H](NC(=O)[C@H](CCCCN)NC(=O)[C@H](CC(=O)O)NC(=O)[C@H](CC(C)C)NC(=O)[C@H](CC(C)C)NC(=O)[C@@H](NC(=O)[C@H](CO)NC(=O)[C@H](CCCCNC(=O)COCCOCCNC(=O)COCCOCCNC(=O)CC[C@H](NC(=O)CCCCCCCCCCCCCCCCCCC(=O)O)C(=O)O)NC(=O)[C@H](CC(=O)O)NC(=O)[C@H](CO)NC(=O)[C@@H](NC(=O)[C@H](Cc1ccccc1)NC(=O)[C@@H](NC(=O)CNC(=O)[C@H](CCC(=O)O)NC(=O)C(C)(C)NC(=O)[C@@H](N)Cc1ccc(O)cc1)[C@@H](C)O)[C@@H](C)O)[C@@H](C)CC)C(=O)N[C@@H](C)C(=O)N[C@@H](CCC(N)=O)C(=O)NC(C)(C)C(=O)N[C@@H](C)C(=O)N[C@@H](Cc1ccccc1)C(=O)N[C@H](C(=O)N[C@@H](CCC(=O)O)C(=O)N[C@@H](Cc1ccc(O)cc1)C(=O)N[C@@H](CC(C)C)C(=O)N[C@H](C(=O)N[C@@H](CCC(=O)O)C(=O)NCC(=O)NCC(N)=O)[C@@H](C)CC)[C@@H](C)CC
B5: Example 73 (peptide)
peptide: Y[Aib]EGTFTSDYSILLDKIAQ[Aib]AFIEYLIK([AEEA-AEEA-γGlu-C20 diacid])GG-NH2
modifications: N-terminus assumed
SMILES: CC[C@H](C)[C@H](NC(=O)[C@H](CCCCN)NC(=O)[C@H](CC(=O)O)NC(=O)[C@H](CC(C)C)NC(=O)[C@H](CC(C)C)NC(=O)[C@@H](NC(=O)[C@H](CO)NC(=O)[C@H](Cc1ccc(O)cc1)NC(=O)[C@H](CC(=O)O)NC(=O)[C@H](CO)NC(=O)[C@@H](NC(=O)[C@H](Cc1ccccc1)NC(=O)[C@@H](NC(=O)CNC(=O)[C@H](CCC(=O)O)NC(=O)C(C)(C)NC(=O)[C@@H](N)Cc1ccc(O)cc1)[C@@H](C)O)[C@@H](C)O)[C@@H](C)CC)C(=O)N[C@@H](C)C(=O)N[C@@H](CCC(N)=O)C(=O)NC(C)(C)C(=O)N[C@@H](C)C(=O)N[C@@H](Cc1ccccc1)C(=O)N[C@H](C(=O)N[C@@H](CCC(=O)O)C(=O)N[C@@H](Cc1ccc(O)cc1)C(=O)N[C@@H](CC(C)C)C(=O)N[C@H](C(=O)N[C@@H](CCCCNC(=O)COCCOCCNC(=O)COCCOCCNC(=O)CC[C@H](NC(=O)CCCCCCCCCCCCCCCCCCC(=O)O)C(=O)O)C(=O)NCC(=O)NCC(N)=O)[C@@H](C)CC)[C@@H](C)CC
B6: Example 57 (peptide)
peptide: YXEGTXTSDYSILLDKKAQXAFIEYLIEGGPSSGAPPPS
modifications: Aib2; αMeF6; K17((2-[2-(2-Amino-ethoxy)-ethoxy]-acetyl)2-(γ-Glu)-CO-(CH2)18-CO2H); Aib20; C-terminal NH2
B7: Example 69 (peptide)
peptide: B6 peptide with L13X
modifications: not fully specified; Aib2; αMeF6; αMeF13 as printed (likely αMeL13); K17((2-[2-(2-Amino-ethoxy)-ethoxy]-acetyl)2-(γ-Glu)-CO-(CH2)18-CO2H); Aib20; C-terminal NH2
B8: Example 67 (peptide)
peptide: B6 peptide with X6F, F22X
modifications: Aib2; K17((2-[2-(2-Amino-ethoxy)-ethoxy]-acetyl)2-(γ-Glu)-CO-(CH2)18-CO2H); Aib20; αMeF22; C-terminal NH2
B9: Example 66 (peptide)
peptide: B6 peptide with X6F, L13X, K16E, I27L
modifications: not fully specified; Aib2; αMeF13 as printed (likely αMeL13); K17((2-[2-(2-Amino-ethoxy)-ethoxy]-acetyl)2-(γ-Glu)-CO-(CH2)18-CO2H); Aib20; C-terminal NH2
B10: Example 68 (peptide)
peptide: B6 peptide with X6F, S11X
modifications: Aib2; αMeS11; K17((2-[2-(2-Amino-ethoxy)-ethoxy]-acetyl)2-(γ-Glu)-CO-(CH2)18-CO2H); Aib20; C-terminal NH2
B11: Example 71 (peptide)
peptide: Y[Aib]EGTFTSDYSILK([AEEA-AEEA-γGlu-C20 diacid])DKIAQ[Aib]AFIEYLIEGG-NH2
modifications: N-terminus assumed
SMILES: CC[C@H](C)[C@H](NC(=O)[C@H](CCCCN)NC(=O)[C@H](CC(=O)O)NC(=O)[C@H](CCCCNC(=O)COCCOCCNC(=O)COCCOCCNC(=O)CC[C@H](NC(=O)CCCCCCCCCCCCCCCCCCC(=O)O)C(=O)O)NC(=O)[C@H](CC(C)C)NC(=O)[C@@H](NC(=O)[C@H](CO)NC(=O)[C@H](Cc1ccc(O)cc1)NC(=O)[C@H](CC(=O)O)NC(=O)[C@H](CO)NC(=O)[C@@H](NC(=O)[C@H](Cc1ccccc1)NC(=O)[C@@H](NC(=O)CNC(=O)[C@H](CCC(=O)O)NC(=O)C(C)(C)NC(=O)[C@@H](N)Cc1ccc(O)cc1)[C@@H](C)O)[C@@H](C)O)[C@@H](C)CC)C(=O)N[C@@H](C)C(=O)N[C@@H](CCC(N)=O)C(=O)NC(C)(C)C(=O)N[C@@H](C)C(=O)N[C@@H](Cc1ccccc1)C(=O)N[C@H](C(=O)N[C@@H](CCC(=O)O)C(=O)N[C@@H](Cc1ccc(O)cc1)C(=O)N[C@@H](CC(C)C)C(=O)N[C@H](C(=O)N[C@@H](CCC(=O)O)C(=O)NCC(=O)NCC(N)=O)[C@@H](C)CC)[C@@H](C)CC

What follows are binders tested against T1, human GIP receptor (assay: cell-based or functional assay).

Binder | hGIPR cAMP EC50 ratio | hGIPR cAMP Rel EC50
B1 | 0.715 | 0.252 nM
B2 | 0.522 | 0.266 nM
B3 | 1.69 | 0.096 nM
B4 | 0.351 | 0.48 nM
B5 | 0.174 | 0.979 nM
B6 | 1.74 | 0.0849 nM
B7 | 2.73 | 0.0712 nM
B8 | 1.61 | 0.0913 nM
B9 | 1.89 | 0.0743 nM
B10 | 1.67 | 0.0881 nM
B11 | 1.02 | 0.166 nM

What follows are binders tested against human GLP-1 receptor (human, UniProt P43220 24-463) (assay: cell-based or functional assay).

Binder | hGLP1R cAMP EC50 ratio | hGLP1R cAMP Rel EC50
B1 | 0.0645 | 0.906 nM
B2 | 0.378 | 0.18 nM
B3 | 0.426 | 0.153 nM
B4 | 0.207 | 0.283 nM
B5 | 0.0225 | 2.55 nM
B6 | 0.996 | 0.0668 nM
B7 | 0.85 | 0.0844 nM
B8 | 0.123 | 0.447 nM
B9 | 0.255 | 0.285 nM
B10 | 0.354 | 0.153 nM
B11 | 0.0604 | 1.02 nM
